Data published in the supplement of paper PMC12764529.
± gives the half width of the 95% confidence interval.

How the values were obtained:
[1] = folding stability dG unfold from trypsin proteolysis; higher = more stable
How it was run: (§1)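 Unfolding free energy was derived, per protease or combined, against a sequence-predicted unfolded-state K50 and a shared folded-state K50, starting from K50 inferred by Bayesian fitting of sequencing counts. Digestion with trypsin and chymotrypsin was carried out on designed mini-proteins under 80 residues without cysteine in a PA-tagged cDNA display construct. Only designs with AlphaFold2 dimer inter-PAE above 15 were kept.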

[2] = folding stability dG unfold from chymotrypsin proteolysis; higher = more stable
How it was run: as §1

[3] = folding stability dG unfold (combined trypsin and chymotrypsin); higher = more stable
How it was run: as §1

Sequence | folding stability dG unfold [1] [kcal/mol] | folding stability dG unfold [2] [kcal/mol] | folding stability dG unfold [3] [kcal/mol]
SAGGSAGGSAGGPEKGKWKLVLVTMTIPLPPGASIPIPNGVWIYYTDGKIEIWFLMWVPDSAGGSAGGSAGG [r7_506_TrROS] | 3.33 ± 0.15 | 5.07 ± 0.11 | 4.8 ± 0.21
SAGGSAGGSAGGPEVNIEVERYRLPNGGYLLVIRTSDGEEIVIEFDSPEEALKAAKEIAKSAGGSAGGSAGG [r11_955_TrMRF] | 1.73 ± 0.035 | 2.04 ± 0.056 | 1.93 ± 0.077
SAGGSAGGSAGGPEWRWREFTIPGDPEEIKKLFPNFKILSPEPPPNGMRKVTIWIPPEDSAGGSAGGSAGGS [r10_764_TrROS] | -0.0853 ± 0.6 | 1.54 ± 0.079 | 1.27 ± 0.12
SAGGSAGGSAGGPIITPKIRDALKAAGKDFSEEEIRGIAEGIAAIAIEKGYPDVVITADASAGGSAGGSAGG [r7_512_TrMRF] | -0.259 ± 0.06 | 0.938 ± 0.018 | 0.669 ± 0.045
SAGGSAGGSAGGPIPGSTIPSVPVKIVNIHPDGTKTEYFNSDIPIDALKEKFPGEIEFESSAGGSAGGSAGG [r17_125_TrMRF] | 0.562 ± 0.065 | 0.734 ± 0.029 | 0.703 ± 0.065
SAGGSAGGSAGGPKIVRIAGNPETGILIIEFENGEKKVIELKQEEADKLAKENPGVEVLTSAGGSAGGSAGG [r7_175_TrMRF] | 1.03 ± 0.059 | 0.433 ± 0.056 | 0.777 ± 0.11
SAGGSAGGSAGGPKYKIEIEIKKIKVKVEKTVKYDGKTYKEEKEFEVLEIKIKIEPEGESAGGSAGGSAGGS [r10_118_TrROS_Hall] | 3.19 ± 0.36 | 4.29 ± 0.21 | 4.05 ± 0.29
SAGGSAGGSAGGPNGKPLNLKIEIPKIEKIQRVNGRPVIRIPVRMTFPGKEVKMTIWIPISAGGSAGGSAGG [r7_739_TrROS] | 2.13 ± 0.086 | 2.44 ± 0.048 | 2.3 ± 0.095
SAGGSAGGSAGGPNLQIMVMQTDNSLTVMIYLPEGWVIVYKITPMKIELEIMPLKDPDDSAGGSAGGSAGGS [r10_1169_TrROS] | 3.98 ± 0.32 | 5.17 ± 0.32 | 4.89 ± 0.28
SAGGSAGGSAGGPNLRIKLKPYPDGKWKIDEIEVPDNHVTIPMRFGNGGEERKTMPPEQISAGGSAGGSAGG [r7_829_TrROS] | 1.42 ± 0.065 | -0.484 ± 0.48 | 0.666 ± 0.29
SAGGSAGGSAGGPPDDWILMIEIVTITIEMKYKDGGKEVERKMEILVIEIAIIPPDDLPSAGGSAGGSAGGS [r10_300_TrROS] | 2.21 ± 0.2 | 3.59 ± 0.29 | 3.11 ± 0.37
SAGGSAGGSAGGPPDEVVTTVTEIELPDDKVVTVTTTTVPGAGTTTTTVTTKPLTKPGVSSAGGSAGGSAGG [r11_695_JUSTAS] | 2.5 ± 0.086 | 1.12 ± 0.029 | 1.82 ± 0.047
SAGGSAGGSAGGPPILLPKFDGSVKEVLTLPTEDRLLLVAYNPETGKLFVFEIKDPDEFSAGGSAGGSAGGS [r10_772_TrMRF] | 0.694 ± 0.044 | 1.65 ± 0.063 | 1.34 ± 0.14
SAGGSAGGSAGGPPKPIKVLLYKPEENKLYVLVFPEGVSLEEVKKYVESHPNFKIVSVEGSAGGSAGGSAGG [r7_624_TrMRF] | 2.04 ± 0.087 | 3 ± 0.051 | 2.72 ± 0.11
SAGGSAGGSAGGPPKWVIFIMIEIRPVTVEVYDPKNGEPLMEKPVWVIKIKIFLFKPGDFSAGGSAGGSAGG [r7_573_TrROS] | 3.07 ± 0.081 | 4.82 ± 0.13 | 4.54 ± 0.13
SAGGSAGGSAGGPPPGQKVTMWVIRIEIKIKLERTPDGKLKLKIEIKISIVFITIYAPDSAGGSAGGSAGGS [r10_297_TrROS] | 3.45 ± 0.13 | 4.87 ± 0.19 | 4.6 ± 0.22
SAGGSAGGSAGGPTITSSKIVAEYPGGKVIEVTIEEPLPTPSTVTKTVTLFIPEGSVLLSAGGSAGGSAGGS [r10_1183_JUSTAS] | 0.536 ± 0.087 | 0.402 ± 0.15 | 0.361 ± 0.34
SAGGSAGGSAGGPTIVIKDVKGLTPEQAEALARDLLKELGLEDADVRLERGEDGDLTFTYSAGGSAGGSAGG [r7_810_TrMRF] | 1.68 ± 0.034 | 0.79 ± 0.14 | 1.26 ± 0.11
SAGGSAGGSAGGPTVTVKVKLEDGSTATVTYDLDTGELYIEVNGKTYKFPLGSKVEIEEVSAGGSAGGSAGG [r7_434_TrROS_Hall] | 2.39 ± 0.28 | 3.56 ± 0.054 | 3.31 ± 0.17
SAGGSAGGSAGGPVIEIKVPSKEDALEAARKLLEELFGKKPEDMKITVEYNPEDKTIKIKSAGGSAGGSAGG [r7_387_TrROS_Hall] | 0.333 ± 0.063 | 1.28 ± 0.054 | 0.986 ± 0.087
SAGGSAGGSAGGPVLVKLSVSKPPGDKVIVTLSFYNPETKEVFTITVPLDFLKNIKPLFSAGGSAGGSAGGS [r10_1077_TrMRF] | 2.61 ± 0.11 | 2.87 ± 0.13 | 2.83 ± 0.2

Sequence | folding stability dG unfold [1] [kcal/mol] | folding stability dG unfold [2] [kcal/mol] | folding stability dG unfold [3] [kcal/mol]
SAGGSAGGSAGGPVVEELEEDLVTEYFRDGDDLYKVVFIPGTGKPFEKKIESIPPDEPFSAGGSAGGSAGGS [r10_240_TrMRF] | 0.119 ± 0.088 | -0.0602 ± 0.21 | 2.34e-05 ± 0.23
SAGGSAGGSAGGPVVIRLKVDMSPEEVEALAKELASLPNVKVEWDEESRVLTVTLSEEDLSAGGSAGGSAGG [r7_219_TrROS_Hall] | 2.46 ± 0.09 | 2.98 ± 0.056 | 2.72 ± 0.099
SAGGSAGGSAGGPYIRVLRSDGKPIVVPVRADDPELFDRVVAELEAAGYPVVKAEVLRLSAGGSAGGSAGGS [r10_231_TrMRF] | -0.818 ± 0.78 | 0.155 ± 0.12 | -0.041 ± 0.093
SAGGSAGGSAGGSAKSPNGDELPPGQPVEEHTIRPPVKPTITIKMYADPDAGKMKFELFSAGGSAGGSAGGS [r4_13_TrROS] | 0.225 ± 0.24 | 0.446 ± 0.31 | 0.533 ± 0.6
SAGGSAGGSAGGSAPNVKLKVEVVTVKVENAKITLPDGRTITLKPGDTVTITKVTLEPASAGGSAGGSAGGS [r4_26_TrROS_Hall] | 2.32 ± 0.088 | 2.05 ± 0.085 | 2.04 ± 0.22
SAGGSAGGSAGGSASMSVTLERLPNGTVVKITTKSVDPSTGSVDYKPSVEKIPPGVALDSAGGSAGGSAGGS [r4_72_JUSTAS] | -0.437 ± 0.18 | -0.448 ± 0.1 | -0.515 ± 0.28
SAGGSAGGSAGGSDPVKVTVTFTATVTVTLPDGGTAPVTLTVTVTAELPPGQSVEDFVASAGGSAGGSAGGS [r4_126_TrMRF] | 2.6 ± 0.033 | 3.65 ± 0.055 | 3.3 ± 0.073
SAGGSAGGSAGGSDRVEVELIFKFPNGFYVVIKWEIDPDEPGKIEMEIAIFDPDGKPIWSAGGSAGGSAGGS [r4_297_TrROS] | 3.35 ± 0.2 | 4.69 ± 0.12 | 4.63 ± 0.19
SAGGSAGGSAGGSEEILDVKVDEKENTLVITTKLPSGGTTTKEIKVENVPPFPESNVKVSAGGSAGGSAGGS [r4_372_JUSTAS] | -0.536 ± 0.072 | 0.31 ± 0.036 | 0.0453 ± 0.14
SAGGSAGGSAGGSEEKLKKMKPKKVATYKVKTVTYKKTKDGTWEPTKVEEVEITVYALPSAGGSAGGSAGGS [r4_288_TrROS_Hall] | 2.44 ± 0.07 | 4.04 ± 0.072 | 3.28 ± 0.3
SAGGSAGGSAGGSEELLKKNPNYIIVKKVEKVLEAKTPSGKKYTIKTTIYIITKPNELPSAGGSAGGSAGGS [r10_0_JUSTAS] | 1.52 ± 0.099 | 2.13 ± 0.14 | 1.84 ± 0.21
SAGGSAGGSAGGSEKEVEISVVLPDGYVLRVRVREVSEDGEEVEVEVELVKVKPGQKLLSAGGSAGGSAGGS [r4_72_TrROS_Hall] | 1.57 ± 0.051 | 1.37 ± 0.079 | 1.5 ± 0.15
SAGGSAGGSAGGSEKKITVYKDKNGNYLVVIEKGDKPIVIPFPKGASLKEALDIIDKLDSAGGSAGGSAGGS [r4_7_TrMRF] | 1.95 ± 0.095 | 2.64 ± 0.051 | 2.41 ± 0.14
SAGGSAGGSAGGSFGAVKARFKVEFVARAEDGSLYPVELEFEVEVPVLPPLPFLHPDLFSAGGSAGGSAGGS [r4_325_TrMRF] | 1.86 ± 0.051 | 2.35 ± 0.038 | 2.18 ± 0.068
SAGGSAGGSAGGSFTIASVETIRQPNGEILYRITLKFPDGTVEEVLEVPESEAGKVLSSLSAGGSAGGSAGG [r7_891_JUSTAS] | 3.23 ± 0.12 | 3.333 ± 0.025 | 3.3 ± 0.07
SAGGSAGGSAGGSGAEELAKKLQEKLEELGLEAEITVEYDEETNELTITITVDGKEYEFSAGGSAGGSAGGS [r4_312_TrROS_Hall] | 2.24 ± 0.13 | 1.74 ± 0.063 | 1.94 ± 0.06
SAGGSAGGSAGGSGAGTLITVTVGGKEVPVTVDPSSDRVSITLPEPTSLTLSVEDPARASAGGSAGGSAGGS [r10_1185_JUSTAS] | 0.593 ± 0.1 | -0.602 ± 0.3 | 0.208 ± 0.17
SAGGSAGGSAGGSGGSARIEVERLPDGLVLLRIYDPETGEEIEIPMPPDLARSFVFLNGSAGGSAGGSAGGS [r4_494_TrMRF] | 0.471 ± 0.026 | 1.51 ± 0.085 | 1.11 ± 0.045
SAGGSAGGSAGGSGKLYYIVVELPNGEKISLLVESPEGAIELLEKLNYPVVKAEFFPISSAGGSAGGSAGGS [r4_213_TrMRF] | 2.29 ± 0.091 | 3.09 ± 0.055 | 2.84 ± 0.12
SAGGSAGGSAGGSGMITVTIEREYTSYVTFPGGTLEPVLLKTTVTATLPPGVPVEEFLSSAGGSAGGSAGGS [r4_126_JUSTAS] | 1.65 ± 0.058 | 1.37 ± 0.12 | 1.54 ± 0.11
SAGGSAGGSAGGSGMSVKREVLEVEEFPGPGRVVRVLERVTLPDGTELLREIEEVIDLLSAGGSAGGSAGGS [r4_50_JUSTAS] | 0.219 ± 0.068 | 1.12 ± 0.049 | 0.871 ± 0.058
